From US7585952 (BIOTECHNOL S A, dated 2009)

B1: hERB-RNase (Erbicin fused to human pancreatic ribonuclease) (other)
chain: QVQLLQSAAEVKKPGESLKISCKGSGYSFTSYWIGWVRQMPGKGLEWMGIIYPGDSDTRYSPSFQGQVTISADKSISTAYLQWSSLKASDTAVYYCARWRDSPLWGQGTLVTVSSGGGGSGGGGSGGSALQAVVTQEPSFSVSPGGTVTLTCGLSSGSVSTSYYPSWYQQTPGQAPRTLIYSTNTRSSGVPDRFSGSILGNKAALTITGAQADDESDYYCVLYMGSGQYVFGGGTKLTVLGAAASGGPEGGSKESRAKKFQRQHMDSDSSPSSSSTYCNQMMRRRNMTQGRCKPVNTFVHEPLVDVQNVCFQEKVTCKNGQGNCYKSNSSMHITDCRLTNGSRYPNCAYRTSPKERHIIVACEGSPYVPVHFDASVEDST
B2: Ph-Erbicin (human anti-ErbB2 scFv from type A clone, displayed on phage) (scFv)
scFv: QVQLLQSAAEVKKPGESLKISCKGSGYSFTSYWIGWVRQMPGKGLEWMGIIYPGDSDTRYSPSFQGQVTISADKSISTAYLQWSSLKASDTAVYYCARWRDSPLWGQGTLVTVSSGGGGSGGGGSGGSALQAVVTQEPSFSVSPGGTVTLTCGLSSGSVSTSYYPSWYQQTPGQAPRTLIYSTNTRSSGVPDRFSGSILGNKAALTITGAQADDESDYYCVLYMGSGQYVFGGGTKLTVLG
notes: Tested as whole phage particles carrying the scFv; also called A type phage clone; clone A
B3: Erbicin (soluble human anti-ErbB2 scFv) (scFv, not shown: small tags and cut ends)
scFv: QVQLLQSAAEVKKPGESLKISCKGSGYSFTSYWIGWVRQMPGKGLEWMGIIYPGDSDTRYSPSFQGQVTISADKSISTAYLQWSSLKASDTAVYYCARWRDSPLWGQGTLVTVSSGGGGSGGGGSGGSALQAVVTQEPSFSVSPGGTVTLTCGLSSGSVSTSYYPSWYQQTPGQAPRTLIYSTNTRSSGVPDRFSGSILGNKAALTITGAQADDESDYYCVLYMGSGQYVFGGGTKLTVLGHHHHHH

Legend:
human ErbB2 receptor [1] = biological target: T1, human ErbB2 receptor (human, UniProt P04626 23-1255); test: cell-based or functional assay
human ErbB2 receptor [2] = biological target: T1, human ErbB2 receptor; test: cell-based or functional assay; remark: listed apart in the source
[3] = biological target: T2, EGF receptor (EGFR, ErbB1) on A431 cells (human, UniProt P00533 25-1210); test: flow cytometry on A431 cells (EGFR at 2x10^6 receptors per cell)
T2 construct: whole, on cells; A431 cells also express ErbB2 at very low levels; also called homologous EGF receptor

Binder | IC50 of inhibition of SKBR3 cell proliferation, 72 h (human ErbB2 receptor [1]) | IC50 of inhibition of SKBR3 cell proliferation, expressed as scFv concentration in the phage preparation (human ErbB2 receptor [1]) | antitumor activity on SKBR3 cells relative to soluble Erbicin (human ErbB2 receptor [1]) | Growth Inhibition (IC50, cfu/ml), BT-474 cells, 96 h (human ErbB2 receptor [2]) | Growth Inhibition (IC50, cfu/ml), MDA-MB453 cells, 96 h (human ErbB2 receptor [2]) | Growth Inhibition (IC50, cfu/ml), NIH 3T3 (ErbB2-trasf.) cells, 96 h (human ErbB2 receptor [2]) | Growth Inhibition (IC50, cfu/ml), SK-OV-3 cells, 96 h (human ErbB2 receptor [2]) | Growth Inhibition (IC50, cfu/ml), SKBR3 cells, 96 h (human ErbB2 receptor [2]) | binding result [3]
B1 | ~20 nM | – | – | – | – | – | – | – | –
B2 | 2.8e+10 cfu/ml | 0.0013 µg/mL | ~5000 fold | 2.5e+11 cfu/ml | 1.4e+11 cfu/ml | 3.5e+11 cfu/ml | 4e+11 cfu/ml | 1.2e+10 cfu/ml | no binding
B3 | 6.4 µg/mL | – | – | – | – | – | – | – | –
